Results from the Human Domainome abundance scans (Beltran et al. 2025).
± gives the uncertainty stated by the source.

B1: TOX high mobility group box family member 3, residues 256 to 323; numbered along this chain, O15405 (parent)
chain: QKPVSAYALFFRDTQAAIKGQNPNATFGEVSKIVASMWDSLGEEQKQVYKRKTEAAKKEYLKALAAYR

Variants of: B1
Assay: abundance fitness (aPCA) (normalised: wild type 0, dead -1); higher = more abundant; growth selection in yeast, the domain comes from the species named
Settings: Homo sapiens

| Variant | abundance fitness |
| --- | --- |
| S5A | -0.314 ± 0.066 |
| S5N | 0.115 ± 0.16 |
| S5R | -0.348 ± 0.08 |
| S5E | -0.022 ± 0.066 |
| L61D | 0.319 ± 0.085 |
| L61G | 0.08 ± 0.11 |
| L61H | 0.134 ± 0.034 |
| Q45A | -0.154 ± 0.075 |
| Q45L | -0.433 ± 0.06 |
| Q45H | 0.098 ± 0.14 |
| Q45F | -0.339 ± 0.091 |
| Q45M | -0.431 ± 0.098 |
| A65D | 0.078 ± 0.084 |
| A65G | 0.067 ± 0.047 |
| A65Q | 0.004 ± 0.097 |
| A65F | -0.111 ± 0.11 |
| W38N | -0.843 ± 0.26 |
| W38G | -0.855 ± 0.12 |
| W38I | -1.2 ± 0.42 |
| A35E | -0.015 ± 0.078 |
| A35L | -0.289 ± 0.068 |
| A35Y | -0.197 ± 0.13 |
| T14G | -0.709 ± 0.11 |
| T14I | -0.326 ± 0.12 |

| Variant | abundance fitness |
| --- | --- |
| T14S | 0.087 ± 0.077 |
| T14F | -0.99 ± 0.34 |
| T14L | -0.314 ± 0.064 |
| T14V | -0.147 ± 0.062 |
| T14E | -0.292 ± 0.057 |
| T14C | -0.781 ± 0.29 |
| T14A | -0.29 ± 0.11 |
| P3H | -0.068 ± 0.059 |
| P3T | -0.142 ± 0.062 |
| P3Y | -0.332 ± 0.12 |
| P3N | -0.163 ± 0.083 |
| G20S | 0.1 ± 0.047 |
| G20P | -0.327 ± 0.12 |
| G20E | 0.085 ± 0.16 |
| G20K | -0.129 ± 0.11 |
| G20V | 0.039 ± 0.05 |
| A56E | -0.007 ± 0.077 |
| A56V | -0.054 ± 0.074 |
| A56W | -0.463 ± 0.07 |
| D39M | -0.191 ± 0.08 |
| D39Q | 0.003 ± 0.088 |
| D39G | -0.21 ± 0.065 |
| D39E | 0.022 ± 0.084 |
| Y67Q | 0.281 ± 0.17 |

| Variant | abundance fitness |
| --- | --- |
| Y67H | 0.155 ± 0.081 |
| Y67E | 0.138 ± 0.35 |
| Y67K | 0.244 ± 0.093 |
| E43N | -0.374 ± 0.17 |
| E43P | 0.058 ± 0.056 |
| E43C | -0.165 ± 0.1 |
| E43W | -0.359 ± 0.07 |
| E43S | -0.118 ± 0.051 |
| S40W | -0.838 ± 0.15 |
| S40M | -0.164 ± 0.078 |
| S40E | 0.01 ± 0.042 |
| S40Y | -0.295 ± 0.094 |
| Y60A | 0.043 ± 0.059 |
| Y60T | 0.148 ± 0.059 |
| Y60S | 0.039 ± 0.057 |
| Y60N | -0.236 ± 0.18 |
| Q21F | -0.444 ± 0.11 |
| Q21W | -0.388 ± 0.089 |
| Q21R | 0.042 ± 0.058 |
| Q21K | 0.029 ± 0.1 |
| Q1A | -0.474 ± 0.16 |
| Q1W | -0.282 ± 0.11 |
| Q1K | 0.247 ± 0.15 |
| Q1N | 0.271 ± 0.15 |

| Variant | abundance fitness |
| --- | --- |
| Q1Y | 0.123 ± 0.073 |
| A55Y | -0.276 ± 0.094 |
| A55H | 0.015 ± 0.053 |
| K19L | -0.166 ± 0.05 |
| K19Q | 0.069 ± 0.066 |
| K19R | -0.102 ± 0.06 |
| K46G | -0.8 ± 0.075 |
| K46I | -0.398 ± 0.1 |
| K46T | -0.395 ± 0.11 |
| K46Q | -0.08 ± 0.083 |
| K46L | -0.537 ± 0.058 |
| K46Y | -0.529 ± 0.17 |
| K46M | -0.356 ± 0.086 |
| K46W | -0.988 ± 0.24 |
| A16I | -0.071 ± 0.15 |
| A16T | -0.047 ± 0.081 |
| A16Q | -0.133 ± 0.077 |
| A16R | 0.021 ± 0.053 |
| A6V | -0.601 ± 0.084 |
| A6I | -0.833 ± 0.37 |
| A6W | -0.848 ± 0.13 |
| F10T | -0.53 ± 0.11 |
| F10Q | -0.71 ± 0.19 |
| F10W | -0.957 ± 0.2 |

| Variant | abundance fitness |
| --- | --- |
| F10L | -0.744 ± 0.1 |
| L9S | 0.077 ± 0.091 |
| L9R | -0.498 ± 0.1 |
| L9N | -0.705 ± 0.41 |
| K50S | -0.181 ± 0.36 |
| A66F | -0.453 ± 0.08 |
| A66W | -0.103 ± 0.067 |
| A66D | 0.509 ± 0.12 |
| A66V | 0.064 ± 0.075 |
| G42R | -0.275 ± 0.052 |
| G42C | 0.04 ± 0.085 |
| G42A | -0.088 ± 0.052 |
| D13A | -0.259 ± 0.12 |
| D13C | -0.314 ± 0.091 |
| D13E | 0.11 ± 0.08 |
| D13N | -0.462 ± 0.13 |
| D13V | -0.344 ± 0.074 |
| D13S | -0.516 ± 0.092 |
| N24C | -0.331 ± 0.086 |
| N24K | 0.016 ± 0.058 |
| N24A | -0.183 ± 0.066 |
| N24Y | -0.563 ± 0.097 |
| N24V | -0.591 ± 0.08 |
| E44W | -0.515 ± 0.073 |

| Variant | abundance fitness |
| --- | --- |
| E44M | -0.493 ± 0.096 |
| A8I | -0.477 ± 0.19 |
| A8G | -0.179 ± 0.17 |
| A8H | 0.136 ± 0.17 |
| A8T | -0.196 ± 0.11 |
| A8Y | -0.458 ± 0.24 |
| E54D | -0.054 ± 0.068 |
| E54C | -0.244 ± 0.084 |
| S36V | -0.218 ± 0.065 |
| S36P | -0.587 ± 0.12 |
| S36I | -0.191 ± 0.094 |
| S36L | -0.344 ± 0.052 |
| S36F | -0.242 ± 0.12 |
| K32I | -0.416 ± 0.14 |
| K32R | -0.045 ± 0.057 |
| K32C | -0.289 ± 0.072 |
| K32M | -0.198 ± 0.069 |
| K32L | -0.376 ± 0.054 |
| A63W | -0.178 ± 0.05 |
| A63L | -0.395 ± 0.047 |
| A63N | 0.107 ± 0.074 |
| A63F | -0.637 ± 0.22 |
| T53M | -0.046 ± 0.096 |
| T53S | 0.113 ± 0.048 |

| Variant | abundance fitness |
| --- | --- |
| T53C | -0.092 ± 0.063 |
| T53V | 0.146 ± 0.047 |
| T53K | 0.001 ± 0.098 |
| T53G | 0.073 ± 0.049 |
| F27K | 0.258 ± 0.061 |
| F27G | -0.071 ± 0.047 |
| F27R | 0.077 ± 0.047 |
| F27Y | 0.029 ± 0.11 |
| F27E | 0.162 ± 0.072 |
| F27L | 0.051 ± 0.041 |
| K62F | -0.519 ± 0.082 |
| K62P | -0.142 ± 0.05 |
| K62G | -0.133 ± 0.05 |
| K62C | -0.3 ± 0.078 |
| K62Y | -0.396 ± 0.063 |
| K62A | -0.022 ± 0.062 |
| K62V | -0.458 ± 0.059 |
| R68H | -0.137 ± 0.17 |
| R68K | 0.101 ± 0.11 |
| R68I | -0.65 ± 0.22 |
| V34H | -1.06 ± 0.23 |
| V34I | -0.149 ± 0.09 |
| V34K | -0.922 ± 0.2 |
